In patent US20050053592:

T1: GST-Wts^68-414, Q9VA38
T1 chain: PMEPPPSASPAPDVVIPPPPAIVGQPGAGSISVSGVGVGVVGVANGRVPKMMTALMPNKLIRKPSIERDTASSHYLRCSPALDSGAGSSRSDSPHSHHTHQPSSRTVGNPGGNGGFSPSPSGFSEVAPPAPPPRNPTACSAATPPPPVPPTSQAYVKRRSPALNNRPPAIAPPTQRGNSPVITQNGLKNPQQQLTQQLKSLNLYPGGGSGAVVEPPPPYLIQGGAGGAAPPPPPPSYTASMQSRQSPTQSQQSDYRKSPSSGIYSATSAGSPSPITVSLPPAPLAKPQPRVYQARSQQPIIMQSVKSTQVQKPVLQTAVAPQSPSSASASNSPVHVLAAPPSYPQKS

T2: GST-Sav^362-607, Q9VCR6
T2 chain: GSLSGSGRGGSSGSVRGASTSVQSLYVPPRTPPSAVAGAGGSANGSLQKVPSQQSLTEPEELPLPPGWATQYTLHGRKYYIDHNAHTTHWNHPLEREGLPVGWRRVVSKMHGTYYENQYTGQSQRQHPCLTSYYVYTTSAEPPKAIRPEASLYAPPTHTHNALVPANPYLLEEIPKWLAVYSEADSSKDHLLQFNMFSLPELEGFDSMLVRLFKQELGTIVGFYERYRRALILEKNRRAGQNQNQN

T3: endogenous Sav (Salvador), Q9VCR6
T3 chain: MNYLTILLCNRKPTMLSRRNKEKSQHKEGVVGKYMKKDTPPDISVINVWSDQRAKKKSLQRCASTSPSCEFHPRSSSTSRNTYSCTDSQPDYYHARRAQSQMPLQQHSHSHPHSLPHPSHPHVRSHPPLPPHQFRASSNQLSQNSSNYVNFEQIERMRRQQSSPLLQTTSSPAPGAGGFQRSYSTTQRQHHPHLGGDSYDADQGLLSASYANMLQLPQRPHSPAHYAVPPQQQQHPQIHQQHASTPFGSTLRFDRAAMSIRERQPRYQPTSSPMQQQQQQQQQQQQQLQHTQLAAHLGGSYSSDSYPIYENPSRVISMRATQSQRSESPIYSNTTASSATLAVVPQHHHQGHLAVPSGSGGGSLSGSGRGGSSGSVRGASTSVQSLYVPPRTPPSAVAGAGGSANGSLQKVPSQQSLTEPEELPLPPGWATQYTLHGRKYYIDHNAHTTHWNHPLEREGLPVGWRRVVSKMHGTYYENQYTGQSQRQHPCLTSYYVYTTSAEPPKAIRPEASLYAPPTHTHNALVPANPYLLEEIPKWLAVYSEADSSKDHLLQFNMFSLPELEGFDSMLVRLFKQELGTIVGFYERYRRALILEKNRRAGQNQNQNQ


How the values were obtained:
GST-Wts^68-414, Q9VA38 = target: T1, GST-Wts^68-414, Q9VA38
[1] = target: GST-Tsc1 (control GST fusion protein)
GST-Sav^362-607, Q9VCR6 = target: T2, GST-Sav^362-607, Q9VCR6
[2] = target: T3, endogenous Sav (Salvador), Q9VCR6

Row | Protein | in vitro kinase assay (32P phosphorylation of the GST substrate) (GST-Wts^68-414, Q9VA38) | in vitro kinase assay (32P phosphorylation of the GST substrate) [1] | in vitro kinase assay (32P phosphorylation of the GST substrate) (GST-Sav^362-607, Q9VCR6) | increase in wing size (MS1096 Gal4 driver) [2]
1 | Myc-tagged Hpo (protein) MEQKLISEEDLNESEPEVTSVVDMKSPNISSSCSFFKLKKLSEESLLQPPEKVFDIMYKLGEGSYGSVYKAVHKESSSIVAIKLVPVESDLHEIIKEISIMQQCDSPYVVRYYGSYFKQYDLWICMEYCGAGSVSDIMRLRKKTLTEDEIATILSDTLQGLVYLHLRRKIHRDIKAANILLNTEGYAKLADFGVAGQLTDTMAKRNTVIGTPFWMAPEVIEEIGYDCVADIWSLGITALEMAEGKPPYGEIHPMRAIFMIPQKPPPSFREPDRWSTEFIDFVSKCLVKEPDDRATATELLEHEFIRNAKHRSILKPMLEETCAIREQQRANRSFGGVLAASQAKSLATQENGMQQHITDNAFMEDPGTLVPEKFGEYQQSSASDATMIAHAEQGVDEGTLGPGGLRNLSKAAAPAAASSAASPLDMPAVDSGTMVELESNLGTMVINSDSDDSTTAKNNDDQKPRNRYRPQFLEHFDRKNAGDGRGDEKPIATEYSPAAAEQQQQQQQQQQQQQQDEQHLASGANDLNNWEHNMEMQFQQISAINQYGLQQHQQQQQVLMAYPLMNEQLIALNNQPNLLLSNAAPMGQQGIPAAAPAQPPPAYQNQHMHTQSHAYVEGEFEFLKFLTFDDLNQRLCNIDHEMELEIEQLNKKYNAKRQPIVDAMNAKRKRQQNINNNLIKI | a GST fusion protein containing this region of Wts was phosphorylated by Hpo | no signals were detected using a control substrate | myc-tagged Hpo protein specifically phosphorylated a GST fusion protein containing the Hpo-binding region of Sav | 
2 | kinase dead Hpo^K71R mutant (UAS-hpo^K71R) (protein) MSEPEVTSVVDMKSPNISSSCSFFKLKKLSEESLLQPPEKVFDIMYKLGEGSYGSVYKAVHKESSSIVAIRLVPVESDLHEIIKEISIMQQCDSPYVVRYYGSYFKQYDLWICMEYCGAGSVSDIMRLRKKTLTEDEIATILSDTLQGLVYLHLRRKIHRDIKAANILLNTEGYAKLADFGVAGQLTDTMAKRNTVIGTPFWMAPEVIEEIGYDCVADIWSLGITALEMAEGKPPYGEIHPMRAIFMIPQKPPPSFREPDRWSTEFIDFVSKCLVKEPDDRATATELLEHEFIRNAKHRSILKPMLEETCAIREQQRANRSFGGVLAASQAKSLATQENGMQQHITDNAFMEDPGTLVPEKFGEYQQSSASDATMIAHAEQGVDEGTLGPGGLRNLSKAAAPAAASSAASPLDMPAVDSGTMVELESNLGTMVINSDSDDSTTAKNNDDQKPRNRYRPQFLEHFDRKNAGDGRGDEKPIATEYSPAAAEQQQQQQQQQQQQQQDEQHLASGANDLNNWEHNMEMQFQQISAINQYGLQQHQQQQQVLMAYPLMNEQLIALNNQPNLLLSNAAPMGQQGIPAAAPAQPPPAYQNQHMHTQSHAYVEGEFEFLKFLTFDDLNQRLCNIDHEMELEIEQLNKKYNAKRQPIVDAMNAKRKRQQNINNNLIKI |  |  |  | expression of the kinase dead Hpo^K71R mutant results in 35% increase in wing size
